{"source": "patent US20170306036A1", "about": "(ENGMAB, published 2017)", "key": {"[1]": {"target": "T1, recombinant human BCMA Fc(kih) (human, UniProt Q02223 4-53, biotinylated at the avi-tag at the C-terminus of the Fc knob chain ; Biotinylated in vivo (BirA) at the avi-tag at the C-terminus of the Fc knob chain. That part is not in the letters.)", "T1 construct": "Monomeric Fc fusion made by knobs-into-holes; also called huBCMA Fc(kih); biotinylated human BCMA; not shown: Human IgG1 hinge-Fc knob chain with C-terminal avi-tag, and the unfused human IgG1 Fc hole chain", "experiment": "SPR (Biacore T200, 25 C), IgG captured on anti-human Fab chip, BCMA Fc(kih) as analyte, 1:1 Langmuir fit", "procedure": "The affinity of the interaction between anti-BCMA antibodies and recombinant human BCMA Fc(kih) was also determined. Anti-human Fab antibody (GE Healthcare) was directly coupled on a CMS chip at pH 5.0 using the standard amine coupling kit (Biacore, Freiburg/Germany). The immobilization level was about 6500 RU. […] Recombinant human BCMA Fc(kih) was passed at a […] concentration range (1.95 to 500 nM) with a flow of 30 μL/minutes through the flow cells over 120 seconds. The dissociation was monitored for 120 seconds. Bulk refractive index differences were corrected for by subtracting the response obtained on reference flow cell. […] Kinetic constants were derived using the Biacore T100 Evaluation Software (vAA, Biacore AB, Uppsala/Sweden), to fit rate equations for 1:1 Langmuir binding by numerical integration (Table 7)."}, "[2]": {"target": "T1, recombinant human BCMA Fc(kih)", "experiment": "SPR (ProteOn XPR36, 25 C), biotinylated BCMA Fc(kih) on NLC chip, Fab as analyte, monovalent affinity", "procedure": "Buffer (PBST) was injected along the sixth channel to provide an “in-line” blank for referencing. Association rate constants (kon) and dissociation rate constants (koff) were calculated using a simple one-to-one Langmuir binding model in ProteOn Manager v3.1 software by simultaneously fitting the association and dissociation sensorgrams. The equilibrium dissociation constant (KD) was calculated as the ratio koff/kon."}, "[3]": {"target": "T1, recombinant human BCMA Fc(kih)", "experiment": "competition ELISA: 500 or 1000 nM Fab on plate-bound biotinylated human BCMA; competitor murine APRIL 50 nM/1200 ng/mL; bound Fab read as OD450", "procedure": "500 nM or 1000 nM purified Fabs were added to saturate the coated human BCMA for 1 h at room temperature. […] The plate was washed 3 times with PBS and anti-FLAG-HRP secondary antibody (1:4000) was added for 1 h. Again, the plate was washed 3 times with PBS and developed by adding 100 ul/well BM Blue POD (Roche). The reaction was stopped by adding 50 ul/well 1M H₂SO₄ and the OD was read at 450 nm (reference at 650 nm) for a final read-out of OD₄₅₀₋₆₅₀."}, "[4]": {"target": "T2, human CD3ε on Jurkat T cells (human, UniProt P07766 23-207)", "T2 construct": "whole, on cells; On cells it is part of the TCR/CD3 complex; also called CD3-positive Jurkat T cells", "T2 sequence (P07766 23-207)": "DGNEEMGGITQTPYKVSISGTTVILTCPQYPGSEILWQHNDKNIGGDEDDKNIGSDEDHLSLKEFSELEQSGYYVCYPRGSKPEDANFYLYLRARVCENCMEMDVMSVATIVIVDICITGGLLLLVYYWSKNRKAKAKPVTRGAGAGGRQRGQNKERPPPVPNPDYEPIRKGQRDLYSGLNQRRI", "experiment": "flow cytometry on CD3-positive Jurkat T cells", "procedure": "Jurkat T cells were cultured in RPMI supplemented with 10% heat-inactivated FCS. Briefly, cultured cells were harvested, counted and cell viability was evaluated using ViCell. Viable cells were then adjusted to 2×10⁶ cells per ml in FACS Stain Buffer (BD Biosciences) containing 0.1% BSA. 100 μl of this cell suspension were further aliquoted per well into a round-bottom 96-well plate. 30 μl of the anti-BCMA/anti-CD3 TCB antibodies or corresponding IgG control were added to the cell-containing wells to obtain final concentrations of 3 nM to 500 nM or 0.1 pM to 200 nM. Anti-BCMA/anti-CD3 TCB antibodies and control IgG were used at the same molarity. After incubation for 30 min at 4° C., cells were centrifuged (5 min, 350×g), washed twice with 150 μl/well BSA-containing FACS Stain Buffer (BD Biosciences), then cells were fixed using 100 ul BD Fixation buffer per well (#BD Biosciences, 554655) at 4° C. for 20 min, resuspended in 120 μl FACS buffer and analyzed using BD FACS Cantoll. Binding of the anti-BCMA/anti-CD3 TCB antibodies to T cells were evaluated and the median fluorescence intensity was determined gated on CD3-expressing Jurkat T cells and plotted in histograms or dot plots."}, "[5]": {"target": "T3, human BCMA on human myeloma cells (H929, L363, RPMI-8226, JJN-3, patient myeloma plasma cells) (human, UniProt Q02223 1-184)", "T3 sequence (looked up)": "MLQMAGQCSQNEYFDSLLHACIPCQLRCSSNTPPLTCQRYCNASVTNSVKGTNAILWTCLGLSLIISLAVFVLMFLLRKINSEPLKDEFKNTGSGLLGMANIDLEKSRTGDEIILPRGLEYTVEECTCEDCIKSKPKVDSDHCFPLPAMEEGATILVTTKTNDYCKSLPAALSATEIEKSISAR", "experiment": "cell-based or functional assay"}, "[6]": {"target": "T3, human BCMA on human myeloma cells …", "experiment": "cell-based or functional assay", "remark": "listed apart in the source"}, "[7]": {"target": "T3, human BCMA on human myeloma cells …"}, "[8]": {"target": "T4, cynomolgus BCMA stably expressed on HEK293T cells (cynoBCMA-HEK293T) (cynomolgus, UniProt A0A2K5UD97 1-183)", "T4 sequence (A0A2K5UD97 entry or part of it)": "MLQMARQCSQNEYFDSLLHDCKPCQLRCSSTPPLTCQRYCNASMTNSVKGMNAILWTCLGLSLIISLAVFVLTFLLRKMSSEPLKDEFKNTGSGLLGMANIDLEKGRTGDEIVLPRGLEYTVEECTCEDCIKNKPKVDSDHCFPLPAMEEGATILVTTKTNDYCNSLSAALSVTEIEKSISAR", "experiment": "cell-based or functional assay"}, "[9]": {"target": "T3, human BCMA on human myeloma cells …", "experiment": "cell-based or functional assay", "remark": "listed apart in the source"}, "[10]": {"target": "T5, human BCMA stably expressed on HEK293T cells (huBCMA-HEK293T) (human, UniProt Q02223 1-184)", "T5 sequence (looked up)": "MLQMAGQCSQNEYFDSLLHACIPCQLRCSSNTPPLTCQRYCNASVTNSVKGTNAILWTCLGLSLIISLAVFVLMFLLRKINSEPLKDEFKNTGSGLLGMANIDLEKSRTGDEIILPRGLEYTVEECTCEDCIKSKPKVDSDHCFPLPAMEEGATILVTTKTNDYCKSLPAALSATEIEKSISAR"}, "[11]": {"target": "T4, cynomolgus BCMA stably expressed on …"}}, "note": "“And” between values parts separate entries of the source, which are not always exact repeats. Equal entries are not always repeated.", "data": [{"binder": "13A4 anti-BCMA IgG (antibody, V domains shown, also called anti-BCMA antibody clone 13A4; MAB 13A4) VH: EVQLVQSGAEVKKPGESLKISCKGSGYSFTSYWIGWVRQMPGKGLEWMGIIYPGDSDTRYSPSFQGQVTISADKSISTAYLQWSSLKASDTAMYYCARNGYLGDYWGQGTLVTVSS VL: not shown", "values": [{"measurement": "Kd", "setting": "[1]", "value": 5.1, "unit": "nM"}, {"measurement": "koff", "setting": "[1]", "value": 0.00036, "unit": "s⁻¹"}, {"measurement": "kon", "setting": "[1]", "value": 72000, "unit": "M⁻¹ s⁻¹"}]}, {"binder": "anti-BCMA Fab clone 13A4 (Fab, V domains shown, Phage-display Fab (Vk2D_28/VH5_1), bacterially expressed) VH: EVQLVQSGAEVKKPGESLKISCKGSGYSFTSYWIGWVRQMPGKGLEWMGIIYPGDSDTRYSPSFQGQVTISADKSISTAYLQWSSLKASDTAMYYCARNGYLGDYWGQGTLVTVSS VL: not shown", "values": [{"measurement": "Kd", "setting": "[2]", "value": 1.8, "unit": "nM"}, {"measurement": "reduction in OD (450 nm) in absence vs. presence of murine Δ-APRIL", "setting": "[3]", "value": 13.1, "unit": "%"}]}, {"binder": "83A10-TCBcv (anti-BCMA/anti-CD3 T cell bispecific antibody, 2+1 Fc-containing, with charge variant) (bispecific antibody, human IgG1, kappa, L234A L235A, also called 83A10-TCVcv) heavy 1: not shown heavy 2: not shown light 1: EVQLLESGGGLVQPGGSLRLSCAASGFTFSTYAMNWVRQAPGKGLEWVSRIRSKYNNYATYYADSVKGRFTISRDDSKNTLYLQMNSLRAEDTAVYYCVRHGNFGNSYVSWFAYWGQGTLVTVSSASVAAPSVFIFPPSDEQLKSGTASVVCLLNNFYPREAKVQWKVDNALQSGNSQESVTEQDSKDSTYSLSSTLTLSKADYEKHKVYACEVTHQGLSSPVTKSFNRGEC light 2: not shown", "values": [{"measurement": "binding result", "setting": "[4]", "value": "binds"}, {"measurement": "EC50 of redirected T-cell killing of RPMI-8226 cells (LDH release), Donor 2", "setting": "[5]", "value": 0.621, "unit": "nM"}, {"measurement": "EC50 of redirected T-cell killing of RPMI-8226 cells (LDH release), Donor 3", "setting": "[5]", "value": 0.229, "unit": "nM"}, {"measurement": "EC50 of redirected T-cell killing of RPMI-8226 cells (LDH release), Donor 4", "setting": "[5]", "value": 0.035, "unit": "nM"}, {"measurement": "EC50 of redirected T-cell killing of RPMI-8226 cells (LDH release), Donor 5", "setting": "[5]", "value": 0.0649, "unit": "nM"}, {"measurement": "EC50 of Granzyme B secretion, PBMC + RPMI-8226 cells (CBA)", "setting": "[6]", "value": 0.34, "unit": "nM"}, {"measurement": "EC50 of IL-10 secretion, PBMC + RPMI-8226 cells (CBA)", "setting": "[6]", "value": 0.3, "unit": "nM"}, {"measurement": "EC50 of TNF-α secretion, PBMC + RPMI-8226 cells (CBA)", "setting": "[6]", "value": 0.52, "unit": "nM"}, {"measurement": "EC50", "setting": "[7]", "value": "~17.4 nM and ~2.51 µg/mL"}, {"measurement": "EC50 of lysis of cynoBCMA-HEK cells (LDH release), cyno PBMCs donor 1", "setting": "[8]", "value": 0.0035, "unit": "nM"}, {"measurement": "EC50 of lysis of cynoBCMA-HEK cells (LDH release), cyno PBMCs donor 2", "setting": "[8]", "value": 0.0027, "unit": "nM"}, {"measurement": "mean EC50 of lysis of cynoBCMA-HEK cells (LDH release)", "setting": "[8]", "value": 0.0031, "unit": "nM"}, {"measurement": "EC50 for reduction of viable (annexin-V negative) myeloma plasma cells, bone marrow aspirate Patient 001", "setting": "[9]", "value": 1, "unit": "nM"}, {"measurement": "EC50 for reduction of viable (annexin-V negative) myeloma plasma cells, bone marrow aspirate Patient 002", "setting": "[9]", "value": 8.24, "unit": "nM"}, {"measurement": "EC50 for reduction of viable (annexin-V negative) myeloma plasma cells, bone marrow aspirate Patient 003", "setting": "[9]", "value": 8.02, "unit": "nM"}, {"measurement": "EC50", "setting": "[10]", "value": 15.6, "unit": "nM"}, {"measurement": "EC50", "setting": "[11]", "value": 7.8, "unit": "nM"}]}, {"binder": "17A5-TCBcv (anti-BCMA/anti-CD3 T cell bispecific antibody, 2+1 Fc-containing, with charge variant) (bispecific antibody, human IgG1, kappa, L234A L235A) heavy 1: not shown heavy 2: not shown light 1: EVQLLESGGGLVQPGGSLRLSCAASGFTFSTYAMNWVRQAPGKGLEWVSRIRSKYNNYATYYADSVKGRFTISRDDSKNTLYLQMNSLRAEDTAVYYCVRHGNFGNSYVSWFAYWGQGTLVTVSSASVAAPSVFIFPPSDEQLKSGTASVVCLLNNFYPREAKVQWKVDNALQSGNSQESVTEQDSKDSTYSLSSTLTLSKADYEKHKVYACEVTHQGLSSPVTKSFNRGEC light 2: not shown", "values": [{"measurement": "binding result", "setting": "[4]", "value": "binds"}]}]}
